Results on 21 variants are retold here after the RNAGym collection of RNA variant scans (doi:10.1073/pnas.2313332121).

To fix the notation:
B1: TPR t1 (parent)
chain: GACCAAUCUGCCCUCAGAGCUCGAGAACAUCUUCGGAUGCAGAGGAGGCAGGCUUCGGUGGCGCGAUAGCGCCAACGUCCUCAACCUCCAAUGCAUCCCACCACAUGAUGAUGCCUGAAGAGCCUUGGUUUUUUG

In this series the parent is B1. As to the kind of experiment: polymerase ribozyme fitness, log enrichment relative to wild type (log ratio); higher = more active; in vitro selection for triplet polymerase activity. The gist of the method: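 Each subunit of a heterodimeric triplet polymerase ribozyme was mutagenized into a library by PCR, transcribed, and subjected to one round of in vitro selection, run in triplicate. Libraries were annealed with a biotinylated primer, the partner subunit and triplets, incubated frozen at −7 °C, and extended constructs were gel-excised, captured on streptavidin beads and recovered by RT-PCR. Input and output libraries were sequenced on Illumina, keeping genotypes with ≥10 input reads and ≥1 read per output. Fitness is log base 2 of genotype enrichment divided by wild-type enrichment, from inverse-variance-weighted replicate averages.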
GACCAAUCUGCCCUCAGAGCUCGAGAACAUCUUCGGAUGCAGAGGUGGUAGGCUUCGGUGGCUCGAUAGCGCCAACGUCCUCAACCUCCAAUGCAUCCCACCACAUGAUGAUGCUUGAAGAGCCUUGGUUUUUUG: the “polymerase ribozyme fitness (log ratio)” value is -5.27.

Turning to GACCAAUCUGCCCUCAGAGCUCGAGAACAUCUUCGGAUGCAGAGGUGGCAGGCUUUGGUGGCGCGAUAGCGGCAACGUCCUCAACCUCCAAUGCAUCCCACCACAUGAUGAUGCCUGAAGAGGCUUGGUUUUUUG, the “polymerase ribozyme fitness (log ratio)” value is -3.53.

For the variant GACCAAUCUGCCCUCAGAGCUCGAGAACAUCUUCGGAUGCAGAGGUGGCAGGGUUCGGUGGCGCGAUAGCGCCAACGUCCUCAACCUCCAAUGCAUCCCACCACAUGAUGAUGCCUGAAGAGCCUUGGUUUUUUG, the “polymerase ribozyme fitness (log ratio)” value was -0.865.

Regarding GACCAAUCUGCCCUCAGAGCUCGAGAACAUCUUCGGAUGCAGAGGUGGCAGGCUUCGGUGGUGCGAUAGCGCCAACGUCCUCAACAUCCAAUGCAUCCCUCCAAAUGAUCAUGCCUGAAGAGCCUUGGUUUUUGG, the “polymerase ribozyme fitness (log ratio)” value is -5.64. The same measure for GACCAAUCUGCCCUCAGAGCUCGAGAACAUCUUCGGAUGCAGAGGUGGCAGGCUUUGGUGGCGCGAUAGCGCCAACGUCCUCAACCUCCAAUGCAUCCCAUCACAUGAUGAUGCCUGAAGAGCCUUGGUUUUUUG: -1.33; for GACCAAUCUGCCCUCAGAGCUCGAGAACAUCUUCGGAUGCAGAGGUGGCAGGCUUGGGUGGCGCGAUAGCGCCAACGGCCUCAAUCUCCAAUGCAUCCCACCACAUGAUGAUGCCUGAAGAGCCUUGGUUUUUUG: -1.84; for GACCAAUCUGCCCUCAGAGCUCGAGAACAUCUUCGGAUGCAGAGGUGGCAGGCUUCGGUGGCGCGAUAGCGCCAACGUCCUCAUCCUCCAAUGCUUCCCACAACAUGAUGAUGCCUGAAGAGCCUUGGUUUUUUG: -4.22. The result for GACCAAUCUGCCCUCAGAGCUCGAGAACAUCUUCGGAUGCAGAGGUGGCAGGUUUCGGUGGCGCGAUAGCGCCAACGUCCUCAACCUCCAUUGCAUCCCACCACAUGAUGAUUCCUGAAGAGCCUUGGUAUUUUG reads -4.7; that for GACCAAUCUGCCCUCAGAGCUCGAGAACAUCUUCGGAUGCAGAGGUGGCAGGCUUCGGUGGGGCGAUAGCGCCAACGUCCUCAACCUCCAAUGCAUCCCACCACAUGAUAAUGCCUGAAGAGCCUUGGUUUUUUG, -5.8; that for GACCAAUCUGCCCUCAGAGCUCGAGAACAUCUUCGGAUGCAGAGGUGGUAGGCUUCGGUGGCGCGAUAGCGACAACGUCCUCAACCUCCAAUGCAUCCCACCACAUGAUGAUGCCUGAAGAGCCUUGGUUUUUUG, 0.459. On to GACCAAUCUGCCCUCAGAGCUCGAGAACAUCUUCGGAUGCAGAGGUGGCAGGAUUCGGUGGCGCGAUAGCGCAAACGUCCUCAACCUCCAAUGCAUCCCACCACAUGAUGAUGCCUGAAGAGCCUUGGUUUUUUG, for which the “polymerase ribozyme fitness (log ratio)” value is -0.67.

In the case of GACCAAUCUGCCCUCAGAGCUCGAGAACAUCUUCGGAUGCAGAGGUGGGAGGCUUCGGUGGCGCGAUAGCGCCAACGUCCUCAACCUCCAAUGCAUCCCACCACAUGAUGAUGCCUGAAGAGCCUUGGUUUUUUG, the “polymerase ribozyme fitness (log ratio)” value was -1.75.

For GACCAAUCUGCCCUCAGAGCUCGAGAACAUCUUCGGAUGCAGAGGUGGAAGGCUUCGGUGGCGCGAUAGCGCCAACGUCCUCAACCUCCAAUGCAUCCCACCACAUGAUGAUGCCUGAAGAGCCUUGGUUUUUUG, the “polymerase ribozyme fitness (log ratio)” value is -0.332. For the variant GACCAAUCUGCCCUCAGAGCUCGAGAACAUCUUCGGAUGCAGAGGUGGGAGGCUUCGGUGGCGCGAUAGUGCCAACGUCCUCACCCUCCAAUGCAUCCCACCACAUGAUGAUGCCUGAAGAGCCUUGGUUUUUUG, the “polymerase ribozyme fitness (log ratio)” value is -2.21. With GACCAAUCUGCCCUCAGAGCUCGAGAACAUCUUCGGAUGCAGAGGUGGCAGGCUUCGGUGGUGCGAUAGCGCCAACGUCCUCAACCUCCAUUGCAUCCCACCGCAAGAUGAUGUCUGAAGAGCCUUGGUUUUUUG, the “polymerase ribozyme fitness (log ratio)” value is -5.16.

Turning to GACCAAUCUGCCCUCAGAGCUCGAGAACAUCUUCGGAUGCAGAGGUGGCAGGCUUCGGUGGCGCGAUAGCGCCAACGUCCUCACCCUCCAAUGCAUCCCACCAAAUGAUGAUGCCUGAAGAGCCUUGUUUUUUUG, the “polymerase ribozyme fitness (log ratio)” value was -4.76. Regarding GACCAAUCUGCCCUCAGAGCUCGAGAACAUCUUCGGAUGCAGAGGUGGCAGGCUUCGGUGGAGCGAUAGCGCCAACGUCCUCAACCUCCAAUGCAUCCCACCACAUGAUGAUGCCUGAAGAGCCUUGGUUUUAUG, the “polymerase ribozyme fitness (log ratio)” value is -2.52. The same measure for GACCAAUCUGCCCUCAGAGCUCGAGAACAUCUUCGGAUGCAGAGGUGGCAGGCUUCGGUGGAGCGAUGGCGCCAACGUCCUCAACCUCCAAUGCAUCCCACCACAUGAUAAUGCCUGAAGAGCCUUGGUUUUUUG: -5.73; for GACCAAUCUGCCCUCAGAGCUCGAGAACAUCUUCGGAUGCAGAGGUGGUAGGCUUCGGUGGCGCGAUAGCGCCAACGUCCUCAACCUCCAAAGCAUCCCACCACAAGAUGAUGCCUGAAGAGCCUUGGUUUUUUG: -7.34. The result for GACCAAUCUGCCCUCAGAGCUCGAGAACAUCUUCGGAUGCAGAGGUGGCAGGCUUCGGUGGCGCGAUAGCGCCAACGUCCUCAACCUCCAAUGCGUCCCACCACAUGAUGAUGCUUGAAGAGCCUUGAUUUUUUG reads -4.98; that for GACCAAUCUGCCCUCAGAGCUCGAGAACAUCUUCGGAUGCAGAGGUGGUAGGCUUCGGUGGCGCGAUAGCGCCUACGUCCUCAACCUCCAAUGCAUCCCACUACAUGAUGAUGCCUGAAGAGCCUUGGUUUUUUG, -4.53.
